T1: G9a and GLP (Homo sapiens, UniProt Q96KQ7+Q9H9B1)
T1 sequence (Q96KQ7 2-1210 limits assumed): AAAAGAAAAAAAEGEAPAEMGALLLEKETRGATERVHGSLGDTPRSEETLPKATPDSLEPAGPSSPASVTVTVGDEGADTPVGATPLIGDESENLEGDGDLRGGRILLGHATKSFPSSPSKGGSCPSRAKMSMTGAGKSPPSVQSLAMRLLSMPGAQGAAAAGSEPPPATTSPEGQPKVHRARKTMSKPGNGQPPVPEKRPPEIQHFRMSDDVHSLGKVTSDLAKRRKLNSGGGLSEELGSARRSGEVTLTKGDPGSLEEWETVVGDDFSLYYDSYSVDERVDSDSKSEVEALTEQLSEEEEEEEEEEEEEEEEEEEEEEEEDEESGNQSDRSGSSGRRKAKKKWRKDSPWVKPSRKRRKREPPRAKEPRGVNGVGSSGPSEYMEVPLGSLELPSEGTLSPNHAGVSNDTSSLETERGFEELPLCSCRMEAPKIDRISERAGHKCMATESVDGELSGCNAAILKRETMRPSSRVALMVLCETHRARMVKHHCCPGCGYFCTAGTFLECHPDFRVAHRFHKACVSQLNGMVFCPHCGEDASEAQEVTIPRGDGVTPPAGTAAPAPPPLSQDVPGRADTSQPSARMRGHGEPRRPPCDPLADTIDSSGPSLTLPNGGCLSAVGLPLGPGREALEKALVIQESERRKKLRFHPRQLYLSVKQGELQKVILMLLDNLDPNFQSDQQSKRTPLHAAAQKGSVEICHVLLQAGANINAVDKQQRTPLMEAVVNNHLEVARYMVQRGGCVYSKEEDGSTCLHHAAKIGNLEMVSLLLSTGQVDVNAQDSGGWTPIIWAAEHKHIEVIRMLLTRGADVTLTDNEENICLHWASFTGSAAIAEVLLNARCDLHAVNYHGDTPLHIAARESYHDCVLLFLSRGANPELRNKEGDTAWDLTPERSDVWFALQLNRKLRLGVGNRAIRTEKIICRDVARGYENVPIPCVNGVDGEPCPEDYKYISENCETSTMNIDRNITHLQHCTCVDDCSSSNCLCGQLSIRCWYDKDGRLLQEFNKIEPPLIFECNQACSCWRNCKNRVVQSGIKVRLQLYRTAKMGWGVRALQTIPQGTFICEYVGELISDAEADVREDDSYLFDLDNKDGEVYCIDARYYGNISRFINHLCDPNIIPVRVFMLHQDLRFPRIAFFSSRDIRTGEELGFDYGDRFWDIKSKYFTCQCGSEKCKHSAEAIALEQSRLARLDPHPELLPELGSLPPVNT
T1 sequence (Q9H9B1 2-1298 limits assumed): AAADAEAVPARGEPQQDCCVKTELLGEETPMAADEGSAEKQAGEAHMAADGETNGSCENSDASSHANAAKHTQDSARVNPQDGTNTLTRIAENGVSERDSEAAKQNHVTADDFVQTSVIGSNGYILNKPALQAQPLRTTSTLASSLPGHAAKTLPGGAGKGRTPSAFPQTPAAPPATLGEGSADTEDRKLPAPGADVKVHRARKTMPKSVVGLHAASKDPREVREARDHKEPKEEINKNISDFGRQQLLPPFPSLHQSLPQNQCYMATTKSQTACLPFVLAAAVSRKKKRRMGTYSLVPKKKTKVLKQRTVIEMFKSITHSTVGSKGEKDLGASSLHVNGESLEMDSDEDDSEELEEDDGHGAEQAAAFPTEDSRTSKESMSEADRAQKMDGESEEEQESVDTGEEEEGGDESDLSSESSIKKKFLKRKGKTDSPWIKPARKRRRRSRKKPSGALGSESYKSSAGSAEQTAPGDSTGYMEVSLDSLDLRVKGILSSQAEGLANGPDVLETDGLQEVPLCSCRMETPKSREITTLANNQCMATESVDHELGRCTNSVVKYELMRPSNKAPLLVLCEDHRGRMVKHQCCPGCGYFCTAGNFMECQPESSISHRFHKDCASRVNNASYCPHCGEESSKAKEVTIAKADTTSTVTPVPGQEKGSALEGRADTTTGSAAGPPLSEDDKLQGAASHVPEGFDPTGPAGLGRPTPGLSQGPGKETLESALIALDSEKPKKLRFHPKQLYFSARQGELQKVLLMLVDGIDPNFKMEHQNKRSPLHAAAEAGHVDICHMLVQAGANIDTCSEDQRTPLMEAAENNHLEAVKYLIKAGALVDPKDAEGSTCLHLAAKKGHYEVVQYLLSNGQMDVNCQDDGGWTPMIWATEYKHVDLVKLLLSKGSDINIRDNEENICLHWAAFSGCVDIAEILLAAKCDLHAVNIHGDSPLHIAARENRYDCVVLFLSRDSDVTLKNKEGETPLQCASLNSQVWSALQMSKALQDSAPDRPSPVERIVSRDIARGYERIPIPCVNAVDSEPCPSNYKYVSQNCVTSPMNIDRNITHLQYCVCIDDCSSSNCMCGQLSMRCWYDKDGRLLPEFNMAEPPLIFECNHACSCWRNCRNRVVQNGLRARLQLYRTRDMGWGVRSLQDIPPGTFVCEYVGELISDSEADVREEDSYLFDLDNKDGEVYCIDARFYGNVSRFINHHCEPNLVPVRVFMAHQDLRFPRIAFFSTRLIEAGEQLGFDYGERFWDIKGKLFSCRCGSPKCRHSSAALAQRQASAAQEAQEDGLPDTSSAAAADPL


Columns and labels:
3×MBT domain of L3MBTL1 = assay: Triple SILAC pull-down, 3xMBT/3xMBTD355N ratio (cytoplasmic, nuclear and chromatin fractions of 293T cells); format: binding, human; settings: SILAC ratio, pull-down 3xMBT vs 3xMBTD355N; for 3xMBT/D355N UNC Heavy: experiment with UNC0638 in heavy SILAC media; for 3xMBT/D355N UNC Light: experiment with UNC0638 in light SILAC media;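 as to all read-outs here: proteins quantified with MaxQuant, requiring at least two unique peptides and quantification in both label directions, normalized to the mean of proteins from a digested loading control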
G9a and GLP = molecular target: T1, G9a and GLP; assay: Triple SILAC pull-down after UNC0638 treatment of 293T cells, DMSO/UNC0638 ratio of protein captured by 3×MBT; format: cell-based; set-up: endogenous in cells; host or cells: HEK 293T; settings: for Relative to UNC0638 UNC Heavy / Relative to UNC0638 UNC Light: SILAC ratio DMSO/UNC0638 of protein pulled down with 3xMBT; for Relative to UNC0638 UNC Heavy: UNC0638 in heavy SILAC media; for Relative to UNC0638 UNC Light: UNC0638 in light SILAC media; for Relative to UNC0638 Average: average of UNC Light and UNC Heavy experiments;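 as to all read-outs here: mass spectrometry (Q-Exactive) SILAC quantitation, DMSO/UNC0638 ratio computed after subtracting 3×MBTD355N mutant pull-down background, only proteins with at least twofold 3×MBT over mutant signal considered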

Molecule	Relative to UNC0638 UNC Heavy (G9a and GLP)	Relative to UNC0638 UNC Light (G9a and GLP)	Relative to UNC0638 Average (G9a and GLP)	Candidate G9a/GLP target (G9a and GLP; reduced association with 3xMBT after UNC0638 treatment)	3xMBT/D355N UNC Heavy (3×MBT domain of L3MBTL1)	3xMBT/D355N UNC Light (3×MBT domain of L3MBTL1)
C22orf28 (protein, UniProt Q9Y3I0 1-505, looked up) RNA-splicing ligase RtcB …: MSRSYNDELQFLEKINKNCWRIKKGFVPNMQVEGVFYVNDALEKLMFEELRNACRGGGVGGFLPAMKQIGNVAALPGIVHRSIGLPDVHSGYGFAIGNMAAFDMNDPEAVVSPGGVGFDINCGVRLLRTNLDESDVQPVKEQLAQAMFDHIPVGVGSKGVIPMNAKDLEEALEMGVDWSLREGYAWAEDKEHCEEYGRMLQADPNKVSARAKKRGLPQLGTLGAGNHYAEIQVVDEIFNEYAAKKMGIDHKGQVCVMIHSGSRGLGHQVATDALVAMEKAMKRDKIIVNDRQLACARIASPEGQDYLKGMAAAGNYAWVNRSSMTFLTRQAFAKVFNTTPDDLDLHVIYDVSHNIAKVEQHVVDGKERTLLVHRKGSTRAFPPHHPLIAVDYQLTGQPVLIGGTMGTCSYVLTGTEQGMTETFGTTCHGAGRALSRAKSRRNLDFQDVLDKLADMGIAIRVASPKLVMEEAPESYKNVTDVVNTCHDAGISKKAIKLRPIAVIKG	0.08 log base 2	0.22 log base 2	0.15 log base 2	–	2.49 log base 2	2.67 log base 2
EEF1D (protein, UniProt P29692 2-281, looked up) Elongation factor 1-delta: ATNFLAHEKIWFDKFKYDDAERRFYEQMNGPVAGASRQENGASVILRDIARARENIQKSLAGSSGPGASSGTSGDHGELVVRIASLEVENQSLRGVVQELQQAISKLEARLNVLEKSSPGHRATAPQTQHVSPMRQVEPPAKKPATPAEDDEDDDIDLFGSDNEEEDKEAAQLREERLRQYAEKKAKKPALVAKSSILLDVKPWDDETDMAQLEACVRSIQLDGLVWGASKLVPVGYGIRKLQIQCVVEDDKVGTDLLEEEITKFEEHVQSVDIAAFNKI	0.11 log base 2	0.20 log base 2	0.15 log base 2	–	3.34 log base 2	3.56 log base 2

Continued, in another order:

Relative to UNC0638 UNC Heavy (G9a and GLP)	Relative to UNC0638 UNC Light (G9a and GLP)	Relative to UNC0638 Average (G9a and GLP)	Candidate G9a/GLP target (G9a and GLP; reduced association with 3xMBT after UNC0638 treatment)	Molecule	3xMBT/D355N UNC Heavy (3×MBT domain of L3MBTL1)	3xMBT/D355N UNC Light (3×MBT domain of L3MBTL1)
0.14 log base 2	0.16 log base 2	0.15 log base 2	–	ZC3HAV1L (protein, UniProt Q96H79 2-300, looked up) Zinc finger CCCH-type …: AEPTVCSFLTKVLCAHGGRMFLKDLRGHVELSEARLRDVLQRAGPERFLLQEVETQEGLGDAEAEAAAGAVGGGGTSAWRVVAVSSVRLCARYQRGECQACDQLHFCRRHMLGKCPNRDCWSTCTLSHDIHTPVNMQVLKSHGLFGLNENQLRILLLQNDPCLLPEVCLLYNKGEALYGYCNLKDKCNKFHVCKSFVKGECKLQTCKRSHQLIHAASLKLLQDQGLNIPSVVNFQIISTYKHMKLHKMLENTDNSSPSTEHSQGLEKQGVHAAGAAEAGPLASVPAQSAKKPCPVSCEK	1.71 log base 2	2.00 log base 2
0.17 log base 2	1.22 log base 2	0.70 log base 2	✓	HN1L (protein, UniProt Q9H910 1-190, looked up) Jupiter microtubule …: MFQVPDSEGGRAGSRAMKPPGGESSNLFGSPEEATPSSRPNRMASNIFGPTEEPQNIPKRTNPPGGKGSGIFDESTPVQTRQHLNPPGGKTSDIFGSPVTATSRLAHPNKPKDHVFLCEGEEPKSDLKAARSIPAGAEPGEKGSARKAGPAKEQEPMPTVDSHEPRLGPRPRSHNKVLNPPGGKSSISFY	2.73 log base 2	3.57 log base 2
0.08 log base 2	0.22 log base 2	0.15 log base 2	–	SNRPA1 (protein, UniProt P09661 2-255, looked up) U2 small nuclear …: VKLTAELIEQAAQYTNAVRDRELDLRGYKIPVIENLGATLDQFDAIDFSDNEIRKLDGFPLLRRLKTLLVNNNRICRIGEGLDQALPCLTELILTNNSLVELGDLDPLASLKSLTYLSILRNPVTNKKHYRLYVIYKVPQVRVLDFQKVKLKERQEAEKMFKGKRGAQLAKDIARRSKTFNPGAGLPTDKKKGGPSPGDVEAIKNAIANASTLAEVERLKGLLQSGQIPGRERRSGPTDDGEEEMEEDTVTNGS	2.94 log base 2	3.39 log base 2
0.24 log base 2	0.06 log base 2	0.15 log base 2	–	EIF4E2 (protein, UniProt O60573 1-245, looked up) Eukaryotic translation …: MNNKFDALKDDDSGDHDQNEENSTQKDGEKEKTERDKNQSSSKRKAVVPGPAEHPLQYNYTFWYSRRTPGRPTSSQSYEQNIKQIGTFASVEQFWRFYSHMVRPGDLTGHSDFHLFKEGIKPMWEDDANKNGGKWIIRLRKGLASRCWENLILAMLGEQFMVGEEICGAVVSVRFQEDIISIWNKTASDQATTARIRDTLRRVLNLPPNTIMEYKTHTDSIKMPGRLGPQRLLFQNLWKPRLNVP	1.89 log base 2	2.26 log base 2

Source: US20140274782A1, “AFFINITY REAGENTS AND METHODS FOR DETECTION, PURIFICATION, AND PROTEOMIC ANALYSIS OF METHYLATED PROTEINS” (The Board of Trustees of the Leland Stanford Junior …, priority 2013, published 2014)
